For experiment [1], the target named is T1, human prostaglandin E2 receptor 4 (EP4) (Homo sapiens, UniProt P35408).
T1 construct: gene PTGER4
The experiment in a line: biochemical.

Experiment [2] has as its target Gαi1 (alpha subunit of Gi protein) (UniProt P63096). The experiment in a line: ELISA; Gα (10 μg/ml) immobilised in a high-binding 96-well plate, blocked with 5% skimmed milk; 5-1000 nM P9-EP4 in sarkosyl or in APG added; detected with anti-P9 antibody, HRP anti-mouse IgG and TMB; 25 °C.
Experiment [3] addresses Gαs1 (alpha subunit of Gs protein) (UniProt P63092). The description is as above.
Experiment [4] addresses Gαi2 (alpha subunit of Gi protein) (UniProt P04899). The experiment is described as above.
The target in experiment [5] is Gαi3 (alpha subunit of Gi protein) (UniProt P08754). The experiment is described as above.
Sequence of Gαi3 (alpha subunit of Gi protein) (P08754 whole entry): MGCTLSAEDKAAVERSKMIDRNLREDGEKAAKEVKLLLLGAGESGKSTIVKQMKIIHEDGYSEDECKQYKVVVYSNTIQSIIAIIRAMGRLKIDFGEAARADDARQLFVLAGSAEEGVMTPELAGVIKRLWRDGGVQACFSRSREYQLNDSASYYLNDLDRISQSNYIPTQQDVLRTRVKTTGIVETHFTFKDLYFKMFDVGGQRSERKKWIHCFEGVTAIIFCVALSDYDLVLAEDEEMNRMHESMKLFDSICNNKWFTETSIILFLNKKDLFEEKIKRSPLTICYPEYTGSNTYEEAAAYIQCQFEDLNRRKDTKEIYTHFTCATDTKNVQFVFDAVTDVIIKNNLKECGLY

Sequence of P9-EP4 (human prostaglandin E2 receptor 4, amino acids 1-354, fused to the C-terminus of the P9 envelope protein of phage phi6, with a C-terminal His6 tag) (P35408 1-354 limits assumed): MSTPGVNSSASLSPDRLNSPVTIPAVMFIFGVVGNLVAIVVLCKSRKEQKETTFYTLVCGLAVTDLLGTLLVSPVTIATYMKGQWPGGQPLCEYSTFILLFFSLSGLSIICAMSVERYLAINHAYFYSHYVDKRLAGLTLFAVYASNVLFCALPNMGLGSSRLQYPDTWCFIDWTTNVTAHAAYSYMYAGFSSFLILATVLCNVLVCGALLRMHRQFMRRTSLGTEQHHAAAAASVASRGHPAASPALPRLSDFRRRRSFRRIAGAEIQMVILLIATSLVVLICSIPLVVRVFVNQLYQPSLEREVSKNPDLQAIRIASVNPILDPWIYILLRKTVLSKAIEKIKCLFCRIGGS
T1 sequence (P35408 1-354): as the sequence (P35408 1-354 limits assumed) above
Sequence of Gαi2 (alpha subunit of Gi protein) (P04899 whole entry): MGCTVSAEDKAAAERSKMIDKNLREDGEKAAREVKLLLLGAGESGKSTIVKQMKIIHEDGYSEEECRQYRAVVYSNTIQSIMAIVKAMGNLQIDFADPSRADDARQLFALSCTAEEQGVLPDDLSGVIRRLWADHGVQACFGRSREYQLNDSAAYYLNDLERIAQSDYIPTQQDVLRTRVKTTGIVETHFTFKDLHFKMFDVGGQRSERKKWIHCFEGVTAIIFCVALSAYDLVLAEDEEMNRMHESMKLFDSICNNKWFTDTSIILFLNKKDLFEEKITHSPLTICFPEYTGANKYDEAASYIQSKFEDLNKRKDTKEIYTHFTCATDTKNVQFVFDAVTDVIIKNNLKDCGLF
Sequence of Gαs1 (alpha subunit of Gs protein) (P63092 whole entry): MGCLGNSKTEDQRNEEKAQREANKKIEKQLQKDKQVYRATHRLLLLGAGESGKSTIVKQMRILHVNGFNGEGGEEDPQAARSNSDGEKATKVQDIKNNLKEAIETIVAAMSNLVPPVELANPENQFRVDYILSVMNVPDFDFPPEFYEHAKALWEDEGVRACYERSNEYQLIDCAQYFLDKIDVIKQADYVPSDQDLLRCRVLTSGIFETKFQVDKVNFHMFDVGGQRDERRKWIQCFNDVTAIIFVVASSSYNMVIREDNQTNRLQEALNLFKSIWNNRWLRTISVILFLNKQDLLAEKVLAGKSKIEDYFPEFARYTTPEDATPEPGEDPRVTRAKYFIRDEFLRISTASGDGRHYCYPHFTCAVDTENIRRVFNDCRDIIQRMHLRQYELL
Sequence of Gαi1 (alpha subunit of Gi protein) (P63096 whole entry): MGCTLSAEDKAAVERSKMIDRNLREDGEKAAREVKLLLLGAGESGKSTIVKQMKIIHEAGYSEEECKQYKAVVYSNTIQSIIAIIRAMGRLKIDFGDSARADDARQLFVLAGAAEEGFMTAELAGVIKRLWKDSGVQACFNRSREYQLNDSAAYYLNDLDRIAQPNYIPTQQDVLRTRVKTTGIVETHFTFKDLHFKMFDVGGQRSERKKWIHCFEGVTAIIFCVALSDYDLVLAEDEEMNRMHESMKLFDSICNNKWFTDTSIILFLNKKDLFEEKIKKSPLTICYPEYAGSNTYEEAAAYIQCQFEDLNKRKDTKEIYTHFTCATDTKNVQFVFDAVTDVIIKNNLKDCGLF

As for `CC(C(=O)Nc1cc(C#N)ccc1CCCC(=O)O)c1ccc(F)c2ccccc12` (centres unmarked) [ONO-AE3-208], the Kd (usually the concentration at which binding is half-saturated) in experiment [1] was 0.68 ± 0.15 µM.

Turning to “P9-EP4 (human prostaglandin E2 receptor 4, amino acids 1-354, fused to the C-terminus of the P9 envelope protein of phage phi6, with a C-terminal His6 tag) (from UniProt P35408 1-354)”, the Kd in experiment [2] is 0.05 µM; in experiment [3], 0.088 µM; in experiment [4] it was 0.175 µM; in experiment [5], 0.214 µM.

The record behind these values is paper PMC7749421, “Functional expression of human prostaglandin E2 receptor 4 (EP4) in E. coli and characterization of the binding property of EP4 with Gα proteins” (Biochemistry and Biophysics Reports, 2020).
